Experimental data from patent US20190010224A1 (Merck Sharp & Dohme, published 2019).

Assays:
[1] = biological target: T1, recombinant human IL-10 (human, UniProt P22301 19-178); test: binding ELISA on immobilized recombinant human IL-10; potency relative to reference material; sample stored at 5 C, 1 month
T1 construct: Immobilized on ELISA microtiter plates; also called interleukin-10
Experimental: (§1) In the ELISA assay, individual dose response curves were generated by using a serial dilution of anti-IL10 reference material or test samples binding to recombinant human IL-10 immobilized on ELISA microtiter plates. Then, by using a SoftMax Pro GxP four-parameter logistic curve fitting analysis, EC₅₀ values of reference material as a control and test samples were determined and a reference-to-sample EC₅₀ ratio was calculated as relative potency for a test sample. Final results were reported as potency relative to reference material.

[2] = biological target: T1, recombinant human IL-10; test: binding ELISA on immobilized recombinant human IL-10; potency relative to reference material; sample stored at 5 C, initial time point
Experimental: as §1

[3] = biological target: T1, recombinant human IL-10; test: binding ELISA on immobilized recombinant human IL-10; potency relative to reference material; sample stored at 5 C, 6 months
Experimental: as §1

[4] = biological target: T1, recombinant human IL-10; test: binding ELISA on immobilized recombinant human IL-10; potency relative to reference material; sample stored at 5 C, 3 months
Experimental: as §1

T1 sequence (P22301 19-178 limits assumed): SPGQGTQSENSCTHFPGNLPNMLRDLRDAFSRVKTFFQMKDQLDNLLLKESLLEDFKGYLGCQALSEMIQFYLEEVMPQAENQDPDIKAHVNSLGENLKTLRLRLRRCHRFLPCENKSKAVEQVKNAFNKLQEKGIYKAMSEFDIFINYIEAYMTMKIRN

- Potency Binding ELISA/Biological Potency, % (reference-to-sample EC50 ratio) [1]: 115%
- Potency Binding ELISA/Biological Potency, % (reference-to-sample EC50 ratio) [2]: 101%
- Potency Binding ELISA/Biological Potency, % (reference-to-sample EC50 ratio) [3]: 105%
- Potency Binding ELISA/Biological Potency, % (reference-to-sample EC50 ratio) [4]: 99%
B1: anti-IL-10 hum12G8 (antibody, human IgG1, kappa, V domains shown)
VH: QVQLVESGGGVVQPGRSLRLSCAASGFTFSDYHMAWVRQAPGKGLEWVASITLDATYTYYRDSVRGRFTISRDNSKNTLYLQMNSLRAEDTAVYYCARHRGFSVWLDYWGQGTLVTVSS
VL: DIQMTQSPSSLSASVGDRVTITCKTSQNIFENLAWYQQKPGKAPKLLIYNASPLQAGVPSRFSGSGSGTDFTLTISSLQPEDFATYYCHQYYSGYTFGPGTKLELKR
notes: Humanized antibody expressed in CHO cells; It was tested as 50 mg/mL drug product in 10 mM histidine, 7% sucrose, 0.02% PS-80, pH 5.5; also called humanized 12G8; hu12G8
